Residue numbers refer to the chain shown, from its start. Names may count otherwise.
B1: Methanococcus jannaschii methionine adenosyltransferase, wild type (enzyme, UniProt Q58605 1-406, looked up)
chain: MRNIIVKKLDVEPIEERPTEIVERKGLGHPDSICDGIAESVSRALCKMYMEKFGTILHHNTDQVELVGGHAYPKFGGGVMVSPIYILLSGRATMEILDKEKNEVIKLPVGTTAVKAAKEYLKKVLRNVDVDKDVIIDCRIGQGSMDLVDVFERQKNEVPLANDTSFGVGYAPLSTTERLVLETERFLNSDELKNEIPAVGEDIKVMGLREGKKITLTIAMAVVDRYVKNIEEYKEVIEKVRKKVEDLAKKIADGYEVEIHINTADDYERESVYLTVTGTSAEMGDDGSVGRGNRVNGLITPFRPMSMEAASGKNPVNHVGKIYNILANLIANDIAKLEGVKECYVRILSQIGKPINEPKALDIEIITEDSYDIKDIEPKAKEIANKWLDNIMEVQKMIVEGKVTTF
B2: Mj-MAT W387F-Y170W (enzyme, Methanococcus jannaschii, UniProt Q58605 1-406, looked up)
chain: B1 chain with Y170W, W387F
B3: Mj-MAT W387F (enzyme, Methanococcus jannaschii, UniProt Q58605 1-406, looked up)
chain: B1 chain with W387F
B4: Mj-MAT W387F-Y72W (enzyme, Methanococcus jannaschii, UniProt Q58605 1-406, looked up)
chain: B1 chain with Y72W, W387F
B5: Mj-MAT W387F-Y120W (enzyme, Methanococcus jannaschii, UniProt Q58605 1-406, looked up)
chain: B1 chain with Y120W, W387F
B6: Mj-MAT W387F-Y267W (enzyme, Methanococcus jannaschii, UniProt Q58605 1-406, looked up)
chain: B1 chain with Y267W, W387F
B7: Mj-MAT W387F-Y85W (enzyme, Methanococcus jannaschii, UniProt Q58605 1-406, looked up)
chain: B1 chain with Y85W, W387F
B8: Mj-MAT W387F-Y49W (enzyme, Methanococcus jannaschii, UniProt Q58605 1-406, looked up)
chain: B1 chain with Y49W, W387F
B9: Mj-MAT W387F-Y323W (enzyme, Methanococcus jannaschii, UniProt Q58605 1-406, looked up)
chain: B1 chain with Y323W, W387F
B10: Mj-MAT W387F-Y273W (enzyme, Methanococcus jannaschii, UniProt Q58605 1-406, looked up)
chain: B1 chain with Y273W, W387F
B11: Mj-MAT W387F-Y371W (enzyme, Methanococcus jannaschii, UniProt Q58605 1-406, looked up)
chain: B1 chain with Y371W, W387F
B12: Mj-MAT W387F-Y233W (enzyme, Methanococcus jannaschii, UniProt Q58605 1-406, looked up)
chain: B1 chain with Y233W, W387F
B13: Mj-MAT W387F-Y226W (enzyme, Methanococcus jannaschii, UniProt Q58605 1-406, looked up)
chain: B1 chain with Y226W, W387F
B14: Mj-MAT W387F-Y344W (enzyme, Methanococcus jannaschii, UniProt Q58605 1-406, looked up)
chain: B1 chain with Y344W, W387F
B15: Mj-MAT W387F-Y255W (enzyme, Methanococcus jannaschii, UniProt Q58605 1-406, looked up)
chain: B1 chain with Y255W, W387F

Target: the molecule itself
Assay: SEC
Conditions: not given

Protein | stoichiometry N
B1 | 2

These proteins were tested on Nc1ncnc2c1ncn2[C@@H]1O[C@H](COP(=O)(O)OP(=O)(O)OP(=O)(O)O)[C@@H](O)[C@H]1O (assay: radiometric S-adenosylmethionine formation assay, Michaelis-Menten fit). Conditions: 0.5 mM [methyl-14C]-L-methionine, ATP 0.05-2.5 mM, 55 °C.
Type: biochemical, Methanocaldococcus jannaschii

Protein | Km [µM] | kcat [s⁻¹]
B1 | 190 ± 30 | 1.46 ± 0.05
B2 | 100 ± 20 | 2.39 ± 0.03
B3 | 110 ± 30 | 1.85 ± 0.08
B4 | 110 ± 30 | 1.62 ± 0.15

Target: the molecule itself
Assay: AUC
Conditions: not given

Protein | stoichiometry N
B2 | 2
B5 | 2
B6 | 2
B7 | 2
B8 | 2
B9 | 2
B10 | 2
B11 | 2
B12 | 2
B13 | 2
B3 | 2
B14 | 2
B4 | 2
B15 | 2

From publication PMC2704562 (Biochimica et biophysica acta, 2009)
